This data set is described as follows: yeast display, Sf9 membrane polyspecificity reagent, FACS + sequencing; frameworks hold sequencing errors. Summed up: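 After 36–48 hours of galactose induction, yeast (Saccharomyces cerevisiae BJ5465) displaying a synthetic nanobody library were stained at 4 °C for 1 hour with 10% biotinylated, detergent-solubilized Sf9 membrane reagent. Streptavidin microbeads enriched the stained cells before FACS sorting into low and high (top ~1%) gates on anti-HA and streptavidin fluorescence. Each clone's polyreactivity label reflects its gate of origin.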
For the sequence “QVQLVESGGGLVQAGGSLRLSCAASGFIFSWNAMGWYRQAPGKERELVAAITNRGGSTYYADSVKGRFTISRDNAKNTVYLQMNSLKPEDTAVYYCAKRSSRWGRTPYDYWGQGTQVTVSS”, the “polyreactivity (PSR sort gate)” value is listed as “high polyreactivity”.

For “QVQLVESGGGLVQAGGSLRLSCAASGSTLTWNDMGWYRPAPGKERELVAAIDVNDGSTYYADSVKGRFTISRDNAKNTVYLQMNSLKPEDTAVYYCAEPTDYTWLDSTLADDYWGQGTQVTVSS”, the “polyreactivity (PSR sort gate)” value is listed as “low polyreactivity”. Turning to “QVQLVESGGGLVQAGGSLRLSCAASGRIFRPYAMGWYRQAPGKERELVASISWRGSSTYYADSVKGRFTISRDNAKNTVYLQMNSLKPEDTAVYYCAARRYPTSGYAYWGQGTQVTVSS”, the “polyreactivity (PSR sort gate)” value was “high polyreactivity”.

As for “QVQLVESGGGLVQAGGSLRLSCAASGRTFTRNAMGWYRQAPGKERELVAAITGRGGSTYYADSVKGRFTISRDNAKNTVYLQMNSLKPEDTAVYYCARFYRYSRDYWGQGTQVTVSS”, the “polyreactivity (PSR sort gate)” value is listed as “high polyreactivity”. In the case of “QVQLVESGGGLVQAGGSLRLSCAASGFSFTNYAMGWYRQAPGKERELVAAINRSGGRTYYADSVKGRFTISRDNAKNTVYLQMNSLKPEDTAVYYCAAYGRYYYIYDYWGQGTQVTVSS” it was “high polyreactivity”; in that of “QVQLVESGGGLVQAGGSLRLSCAASGSTFFYYAMGWYRQAPGKERELVAAISQSSASTYYADSVKGRFTISRDNAKNTIYLQMNSLKPEDTAVYYCAADYWSVPYIYEYWGQGTQVTVSS”, “high polyreactivity”. As to “QDQLVESGGGLVQAGGSLRLSCAASAFIFSSNAMGWYRQAPGKEREFVAAISFRGGTTYYADSVKGRFTISRDNAKNTVYLQMNSLKPEDTAVYYCNAVRWRSGRWWWYDYWGQGTQVTVSS”, the “polyreactivity (PSR sort gate)” value was “low polyreactivity”.

Turning to “QVQLVESGGGLVQAGGSLRLSCADSGIIFAYYAMGWYRQAPGKERELVAAITGGGVRTYYADSVKGRFTISRDNAKNTVYLQMNSLKPEDTAVYDCIATGSTASGRVNYWGQGTQVTVSS”, the “polyreactivity (PSR sort gate)” value is “high polyreactivity”. In the case of “QVQLVESGGGLVQAGGSLRLSCAASGFIFSSNAMGGYRQAPGTERELVATIDRDGGITYADSVKGRFTISRDNAKTTVYIQMNSLKPEDTEVYYCAADPSSYGRFTYDYWGQGTQVTVSS” it was “low polyreactivity”; in that of “QVQLVESGGGLVQAGGSLRLSCAASGITFGNYAMYWVRQAPGKERELVAAINYSRGSTYYADSVKGRFTISRDNAKNTVYLQMNSLKPQDTAVYYCAADTYPASYDYWGQGTQVTVSS”, “high polyreactivity”. To “QVQLVESGGGLVQAGGSLRLSCAASGRTFPGYAMGWYRQAPGTEMEMVAAISSGGGTKYADSVKGRFTISRDNAKYTVYVQMNSLKPEDTAVFYCAARGGTYHWGRYYWRQYDYWGQGTQVTVSS” belongs “high polyreactivity”.

As to “QVQLVESGGGLVQAGGSLRLSCAASGNTFTWYTIGWYRQAPGKERELVAVITSDGSTYYADSVKGRFTISRDNAKNTVYLQMNSLKPEDTAVYYCNALSADWYPEVDYWGQGTQVTVSS”, the “polyreactivity (PSR sort gate)” value is “low polyreactivity”. In the case of “QVQLVESGGGLVQAGGSLRLSCAASGFTFDKNAMGWYRQAPGKERELVAAITKSGGSTYYADSVKGRFTISRDNAKNTVYLQMNSLKPEETAVYYCNAPPWSRYYYDLLRHDYWGQGTQVTVSS” it was “low polyreactivity”; in that of “QVQLVESGGGLDQAGGSLRLSCAASGSIFYTNAMGWYRQAPRKERELVAAITSADSTYYADSVKGRFTISRDNANNTVYLQMNSLKPEDTAFYYCANDVYYYYRWYEYWGQGTQVTVSS”, “high polyreactivity”; in that of “QVQLVESGGGLVQAGGSLRLSCAASGRIFLVNTMGWYRQAPGKERELVATITFSVVRTYYADSVKGRFTISRDNAKNSVYLQMNSLKPEVTAVYYCAKQHLVSVPEMYYWGQGTQVTVSS”, “low polyreactivity”. To “QDHLVESGGGLVQAGGSLRLSCAASGSIFYRYAMGWYRQAPWKERELVAAISRSGGTTYYADSVKGRFTISRDNAKNTVYLQMNSLKPEDTAVYYCAARVFHPYSTDPYYYWGQGTQVTVSS” belongs “high polyreactivity”; to “QVQLVESGGGLVQAGGSLRLSCAASGSIFYIYAMGWYRQAPGKERELVASITFSGDITYYADSVKGRFTISRDNAKNTVYLQMNSLKPEDTAVYYCAADYHEQSYAVTYDYWGQGTQVTVSS”, “low polyreactivity”. In the case of “QVQLVESAAGLVQAGGSLRLSGAASGRIFRYNAMGGYRQAPGNERELVAAISSGGSTNYADSVKGRFTTSRDNAKNTVYLQMNSLKPEDTAVYYCNADSVHRYPGWGYDYWGLGTQVTVSS” it was “low polyreactivity”; in that of “QVQLVESGGGLVQAGGSLRLSCAASGSIFIRNAMGWYRQAPGKERELVAAISWGGARTYYADSVKWRFTISRDNAKNTVYLQMNSLKPEDTAVYYCNALNVRGNKFDYWGQGTQVSVSS”, “high polyreactivity”; in that of “QVQLVESGGGLVQAGGSLRLSCAASGSIFNSYAMGWYRQAPGKERELVAAIRWSGGRTYYADSVKGRFTISRDNAKNTVYLQMNSLKPEDTAVYYCNVVSPGRVNYWGQGTQVTVSS”, “high polyreactivity”.

On to “QVQLVESGGGLVQAGGSLRLSCAASGSIFYRNAMGWYRQAPGKERELVAAITRSDGRTYYADSVKGRFTISRDNAKNTVYLLMNSLKPEDTAVYYCAADYSFGYRDFYYWGQGTQVTVSS”, for which the “polyreactivity (PSR sort gate)” value is on record as “low polyreactivity”.

For “QVQLVESGGGIVQAGGSLRLSCAASGSTFTANAMGWYRQAPGKERELVAAISRSGGSTYYADSVKGRFTISRDNAKNTVYLQMNSLKPEDTAVYYCAAESPLFSPPDGEDYWGQGTQVTVSS”, the “polyreactivity (PSR sort gate)” value was “low polyreactivity”. To “QVQLVESGGGLVQAGGSLRLSCAASGNTFGYNAMGWYRQAPGKERELVASITWSGGSTYYADSVKGRFTISRDNAKNTVYLQMNSLKPEDTAVYYCNADVRFDYWGQGTQVTVSS” belongs “low polyreactivity”.

As for “QVQLVESGGGLVQAGGTLRLSCAASGFIFRKYGMGWYRQAPGKERELVAAIRFTGGSTRYADSVKGRFTISRDNAKNTVYLQMNSLKPEDTAVYYCNADRVYVRGRFTYDYWGQGTQVTVSS”, the “polyreactivity (PSR sort gate)” value is “low polyreactivity”. In the case of “QVQLVESGGGLVQAGGSLRLLCADSGFTFEYYAMGWYRQAPGKERELVAAITSGGSTNYADSVKGRFTISRDNAKNTVYVQMNSLKPEDTAVYYCAAGYWYRYAALRYDHWGQGTQVTVSS” it was “low polyreactivity”; in that of “QVQLVESGGGLVQAGGSLRLSCAASGRTFTHNVMGRYRQAPGKERELVAGISSTGGSTYYADSVKGRFTISRDNAKNTVYLQMNSLKPEDTAVYYCAVIGYHYSAISPPSQTRQGYDYWGQGTQVTVSS”, “low polyreactivity”.

Turning to “QVQLVESGGGLVQAGGSLRLSCASSGSIFYQNAMGWYRQAPGKEREFVAAIRSSGSSTYYADSVKGRFTISRDNAKNTVYLQMNSLKPEDTAVYYCAAPSSRGQGRNFDYWGQGSQVTVSS”, the “polyreactivity (PSR sort gate)” value was “high polyreactivity”. To “QVQLVESGGGLVQAGGSLRLSCAASGSIFYFNAMGWYRPAPGKERELVAAINISGSSTSYADSVKGRFTISRDNAKNTVYLQMNSLKPEDTAVYYCAAEDEPRILIVRVWDYYWGQGTQVTVSS” belongs “low polyreactivity”; to “QVQLVESGGRLVQAGGSLRLSCAASGRTLSSYVIGWYRQAPGKERELVAAITQSTSRTYYADSVKGRFTISRDNAKNTVYLQMHSLKPEDTAVYYCAAEGRFGRKYGYWGQGTQVTVSS”, “low polyreactivity”.

Take “QVQLVESGGGLVQAGGSLRLSCAASGYIFDIYAMGWYRQAPGKERELVAVITRSGGGTYYADSVKGRFTISRDNAKNSVYLQMNSLKPEDTAVYYCAAESYVYGGSDYDYWGQGTQVTVSS”: the “polyreactivity (PSR sort gate)” value is recorded as “low polyreactivity”. Consider “HVQLVESGGGLVQAGGSLRLSCAASGSIFAQYAMGWYRQAPRKDRELLAAISRSTGRTYYADSVKGRFTISRDNAKNTVYLQMNSLKPEDNAVYYWNVVANRALSRSGYDYWGQGTQVTVSS”, for which the “polyreactivity (PSR sort gate)” value is “high polyreactivity”. In the case of “QVQLVESGGGLVQAGGSLRLSCAASGSTFTANAMGWYRQAPWKERELVASISAREGSTYADSVKGRFTISRDNANNTVYLQMNSLKPEDTAVYYCNAAYFHIFPYDYDYWGQCTQVTVSS” it was “low polyreactivity”; in that of “QVQLVESGGGLVQAGGSLRLSCAASGFIFVYYAMGWYRQAPGKERELVAAISSRGGSTYYADSVKRRFTISRDNAKNTVYLQMNSLKPEDTAVYYCAARPSSRRYGTIMDYWGQGTQVTVSS”, “high polyreactivity”. To “QVQLVESGGGLVQAGGSLRLSCAASGFTFTVYAMGWYRPAPGKERELVAVITSGDGTYYADSVKGRFTISRDNAKNTVYLQMNSLKPEDTAVYYCNARRYSSFRYRFAYDYWGQGTQVTVSS” belongs “low polyreactivity”; to “QVQLVESGGGLVQAGGSLRLSCAASGRTFRTYAMGWYRQAPGKERELVASISVGGGSTYYADSVKGRFTISRDNAKNTVYLQMNSLKPEDTAVYYCAVRSYSPRSRGMGYWGQGTQVTVSS”, “high polyreactivity”; to “QVQLVESGGGLVQAGCSLRLSPASGSTLAGNTMGWYRQAPGKERELVAAINDSGGSTYYADSVKGRFTISRDNAKNSVNLQMNSLKPEDTGVYYCNADGSAYIEDGYDYWGQGTQVTVSS”, “low polyreactivity”.

As for “QVHLVESGGGLVQAGGSLRLSWAASGFIFKNYAMGWYRQAPGKERELVAVISRSGGSTYYADSVKGRFTISRDNAKNTVYLQMNSLKPEDTAVYYCNADRWKSGYWRYDYWGQGTQVTVSS”, the “polyreactivity (PSR sort gate)” value was “low polyreactivity”. Take “QVQLVESGGGLVQAGGSLRLSCAASGRTFLWNAMGWYRQAPGKERELITYYADSVKWRFTISRDNAKNTVYLQMNSLKPEDTAVYYCAAEQGSSVLYDSWGQGTQVTVSS”: the “polyreactivity (PSR sort gate)” value was “low polyreactivity”. For “QVQLVESGGGLVQAGGSLRLSCAASGLTLYRYVMGWYRQAPGKERELVADISGRGTSTYYADSVKGRFTISRDNAKNTVYLQMNRLKPAATAVYYCNAEYTKTGALVIPYTYYYAEDYWGQGTQVTVSS”, the “polyreactivity (PSR sort gate)” value is on record as “low polyreactivity”. To “QVQLVESGGGLVQAGGSLRLSCAASGSTFALNAMGWYRQAPGKERELVAAITTGGHTYYADSVKGRFTISRDNAKNTDYLQMNSLKPEDTAVYYCATVFYFDYYYHYDYWGQGTQVTVSS” belongs “low polyreactivity”. Consider “QVQLVESGGGLVQAGGSLRLSCAASGSIFSGYVKGWYRQAPGKDMELVAAISGSGGSTYYADSVKGRFTISRDNAKNTVYFQMNSLKPEDTAVYYCNVDRSPTHIVGYGYWGQGTQVTVSS”, for which the “polyreactivity (PSR sort gate)” value is given as “low polyreactivity”.

These data come from the nanobody polyreactivity screen of Harvey et al. (2022).
